Experimental data from the supplement of paper PMC11246515.
± gives the standard deviation of the averaged measurements.

Experiment: total protein half-life in vivo (active degradation + dilution); higher = more stable protein
[1] = E. coli NCM3722 delta-clpP delta-lon delta-hslV, growth: N-lim chemostat, doubling time 6 h
[2] = E. coli NCM3722 delta-clpP, growth: N-lim chemostat, doubling time 6 h
[3] = E. coli NCM3722 delta-hslV, growth: N-lim chemostat, doubling time 6 h
[4] = E. coli NCM3722 delta-lon, growth: N-lim chemostat, doubling time 6 h
[5] = E. coli NCM3722 delta-smpB, growth: N-lim chemostat, doubling time 6 h
[6] = wild type E. coli NCM3722, growth: C-lim chemostat, doubling time 3 h
[7] = wild type E. coli NCM3722, growth: C-lim chemostat, doubling time 6 h
[8] = wild type E. coli NCM3722, growth: C-lim chemostat, doubling time 12 h
[9] = wild type E. coli NCM3722, growth: N-lim chemostat, doubling time 6 h
[10] = wild type E. coli NCM3722, growth: N-lim chemostat, doubling time 12 h
[11] = wild type E. coli NCM3722, growth: P-lim chemostat, doubling time 6 h
[12] = wild type E. coli NCM3722, growth: P-lim chemostat, doubling time 12 h

MKTERILGALYGQALGDAMGMPSELWPRSRVKAHFGWIDRFLPGPKENNAACYFNRAEFTDDTSMALCLADALLEREGKIDPDLIGRNILDWALRFDAFNKNVLGPTSKIALNAIRDGKPVAELENNGVTNGAAMRVSPLGCLLPARDVDSFIDDVALASSPTHKSDLAVAGAVVIAWAISRAIDGESWSAIVDSLPSIARHAQQKRITTFSASLAARLEIALKIVRNADGTESASEQLYQVVGAGTSTIESVPCAIALVELAQTDPNRCAVLCANLGGDTDTIGAMATAICGALHGVNAIDPALKAELDAVNQLDFNRYATALAKYRQQREAV
total protein half-life in vivo [1]: 4.09 ± 0.27 h
total protein half-life in vivo [2]: 3.33 ± 0.15 h
total protein half-life in vivo [3]: 3.21 ± 0.037 h
total protein half-life in vivo [4]: 3.64 ± 0.55 h
total protein half-life in vivo [5]: 3.4389 ± 0.00072 h
total protein half-life in vivo [6]: 2.89 ± 0.35 h
total protein half-life in vivo [7]: 5.04 ± 0.58 h
total protein half-life in vivo [8]: 9.45 ± 0.66 h
total protein half-life in vivo [9]: 3.36 ± 0.19 h
total protein half-life in vivo [10]: 4.91 ± 0.38 h
total protein half-life in vivo [11]: 5.45 ± 0.4 h
total protein half-life in vivo [12]: 10.4 ± 0.37 h

MKTFFRTVLFGSLMAVCANSYALSESEAEDMADLTAVFVFLKNDCGYQNLPNGQIRRALVFFAQQNQWDLSNYDTFDMKALGEDSYRDLSGIGIPVAKKCKALARDSLSLLAYVK [P0AA95]
total protein half-life in vivo [1]: 3.21 ± 0.054 h
total protein half-life in vivo [2]: 3.39 ± 0.072 h
total protein half-life in vivo [3]: 6.81 h
total protein half-life in vivo [4]: 2.74 h
total protein half-life in vivo [5]: 3.47 ± 0.12 h
total protein half-life in vivo [7]: 3.61 ± 0.71 h
total protein half-life in vivo [8]: 4.74 h
total protein half-life in vivo [9]: 3.1 ± 0.091 h
total protein half-life in vivo [10]: 5.56 ± 1.2 h
total protein half-life in vivo [11]: 3.21 ± 0.85 h
total protein half-life in vivo [12]: 5.86 ± 0.72 h

MKTFPLQSLTIIEAQQKQFALVDSICRHFPGSEFLTGGDLGLTPGLNQPRVTQRVEQVLADAFHAQAAALVQGAGTGAIRAGLAALLKPGQRLLVHDAPVYPTTRVIIEQMGLTLITVDFNDLSALKQVVDEQQPDAALVQHTRQQPQDSYVLADVLATLRAAGVPALTDDNYAVMKVARIGCECGANVSTFSCFKLFGPEGVGAVVGDADVINRIRATLYSGGSQIQGAQALEVLRGLVFAPVMHAVQAGVSERLLALLNGGAVPEVKSAVIANAQSKVLIVEFHQPIAARVLEEAQKRGALPYPVGAESKYEIPPLFYRLSGTFRQANPQSEHCAIRINPNRSGEETVLRILRESIASI
total protein half-life in vivo [1]: 5.7 ± 0.96 h
total protein half-life in vivo [2]: 5.48 h
total protein half-life in vivo [3]: 4.47 h
total protein half-life in vivo [4]: 4.71 h
total protein half-life in vivo [9]: 4.59 h
total protein half-life in vivo [10]: 8.25 h
total protein half-life in vivo [11]: 5.35 h
total protein half-life in vivo [12]: 12.4 h

MKTGPLNESELEWLDDILTKYNTDHAILDVAELDGLLTAVLSSPQEIEPEQWLVAVWGGADYVPRWASEKEMTRFMNLAFQHMADTAERLNEFPEQFEPLFGLREVDGSELTIVEEWCFGYMRGVALSDWSTLPDSLKPALEAIALHGTEENFERVEKMSPEAFEESVDAIRLAALDLHAYWMAHPQEKAVQQPIKAEEKPGRNDPCPCGSGKKFKQCCLH [P0AD05]
total protein half-life in vivo [1]: 5.402 ± 0.046 h
total protein half-life in vivo [2]: 5.13 ± 1.1 h
total protein half-life in vivo [3]: 4.22 ± 0.47 h
total protein half-life in vivo [4]: 4.39 ± 0.54 h
total protein half-life in vivo [5]: 3.3 ± 0.53 h
total protein half-life in vivo [7]: 5.21 ± 1.5 h
total protein half-life in vivo [8]: 8.89 ± 1.9 h
total protein half-life in vivo [9]: 3.93 ± 0.25 h
total protein half-life in vivo [10]: 5.34 ± 1.1 h
total protein half-life in vivo [11]: 4.67 ± 0.34 h
total protein half-life in vivo [12]: 8.41 ± 0.26 h

MKTIEVDDELYSYIASHTKHIGESASDILRRMLKFSAASQPAAPVTKEVRVASPAIVEAKPVKTIKDKVRAMRELLLSDEYAEQKRAVNRFMLLLSTLYSLDAQAFAEATESLHGRTRVYFAADEQTLLKNGNQTKPKHVPGTPYWVITNTNTGRKCSMIEHIMQSMQFPAELIEKVCGTI [P0AFY8]
total protein half-life in vivo [1]: 6.27 ± 0.64 h
total protein half-life in vivo [2]: 5.709 ± 0.046 h
total protein half-life in vivo [3]: 5.89 ± 0.072 h
total protein half-life in vivo [4]: 5.19 ± 0.16 h
total protein half-life in vivo [5]: 4.27 ± 0.23 h
total protein half-life in vivo [6]: 2.738 ± 0.014 h
total protein half-life in vivo [7]: 4.84 ± 0.89 h
total protein half-life in vivo [8]: 12.7 ± 0.44 h
total protein half-life in vivo [9]: 4.7 ± 0.42 h
total protein half-life in vivo [10]: 8.55 ± 1.1 h
total protein half-life in vivo [11]: 4.71 ± 0.44 h
total protein half-life in vivo [12]: 9.12 ± 0.4 h

MKTIFRYILFLALYSCCNTVSAYTSFIVGNNAGVDNYRGPSTAAQMTFNYTSTASNLVFYKPTQLGPTGVKMYWSYLDTGTGGGILYCNTSGRANPGPITIENAMVYSGKDYGGHKLFNTSVPGLYYTMLISRVWSAYDTITDIQSPGIYIGDPSNQEFFFSVTDSDLQTKGCNKADDYDKFWAIGGIVHNITVEFYTDTNFDPTLNQQVQLSSSSNYLYSFKAYSPGTKVVDHSNHIYVNFTLNNVKLTLPTCFTSILTGPSVNGSTVRMGEYSSGTIKNGASPVPFDISLQNCIRVRNIETKLVTGKVGTQNTQLLGNTLTGSTAAKGVGVLIEGLATSKNPLMTLKPNDTNSVYIDYETEDDTSDGVYPNQGNGTSQPLHFQATLKQDGNIAIEPGEFKATSTFQVTYP
total protein half-life in vivo [5]: 4.93 ± 0.34 h
total protein half-life in vivo [8]: 4.96 h

MKTIGLLGGMSWESTIPYYRLINEGIKQRLGGLHSAQVLLHSVDFHEIEECQRRGEWDKTGDILAEAALGLQRAGAEGIVLCTNTMHKVADAIESRCTLPFLHIADATGRAITGAGMTRVALLGTRYTMEQDFYRGRLTEQFSINCLIPEADERAKINQIIFEELCLGQFTEASRAYCAQVIARLAEQGAQGVIFGCTEIGLLVPEERSVLPVFDTAAIHAEDAVAFMLS
total protein half-life in vivo [2]: 4.02 ± 0.18 h
total protein half-life in vivo [3]: 4.05 ± 0.27 h
total protein half-life in vivo [4]: 4.84 ± 0.066 h
total protein half-life in vivo [5]: 3.69 ± 0.16 h
total protein half-life in vivo [6]: 2.27 ± 0.064 h
total protein half-life in vivo [7]: 4.43 ± 0.24 h
total protein half-life in vivo [8]: 7.096 ± 0.017 h
total protein half-life in vivo [9]: 3.96 ± 0.22 h
total protein half-life in vivo [10]: 6.72 ± 0.36 h
total protein half-life in vivo [11]: 4.25 ± 0.4 h
total protein half-life in vivo [12]: 8.06 ± 0.15 h

MKTKLNELLEFPTPFTYKVMGQALPELVDQVVEVVQRHAPGDYTPTVKPSSKGNYHSVSITINATHIEQVETLYEELGKIDIVRMVL [P0A8J4]
total protein half-life in vivo [1]: 3.54 ± 1.3 h
total protein half-life in vivo [2]: 2.19 ± 0.44 h
total protein half-life in vivo [3]: 1.24 h
total protein half-life in vivo [4]: 2.23 ± 0.17 h
total protein half-life in vivo [5]: 1.42 ± 0.17 h
total protein half-life in vivo [6]: 2.1 h
total protein half-life in vivo [7]: 2.72 h
total protein half-life in vivo [8]: 3.05 h
total protein half-life in vivo [9]: 1.34 h
total protein half-life in vivo [10]: 1.54 h
total protein half-life in vivo [11]: 2.04 ± 0.064 h
total protein half-life in vivo [12]: 3.43 ± 0.32 h
